T1: activin A (ActA) (Homo sapiens, UniProt P08476)
T1 sequence (P08476 311-426): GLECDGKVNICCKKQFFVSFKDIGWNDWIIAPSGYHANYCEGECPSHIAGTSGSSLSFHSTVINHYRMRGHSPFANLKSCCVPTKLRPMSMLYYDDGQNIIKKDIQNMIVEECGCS

T2: GDF11 (Homo sapiens, UniProt O95390)
T2 sequence (O95390 299-407): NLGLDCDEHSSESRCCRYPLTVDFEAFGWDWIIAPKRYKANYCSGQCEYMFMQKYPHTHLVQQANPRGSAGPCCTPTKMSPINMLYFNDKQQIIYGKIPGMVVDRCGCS

T3: GDF8 (Homo sapiens, UniProt O14793)
T3 sequence (O14793 267-375): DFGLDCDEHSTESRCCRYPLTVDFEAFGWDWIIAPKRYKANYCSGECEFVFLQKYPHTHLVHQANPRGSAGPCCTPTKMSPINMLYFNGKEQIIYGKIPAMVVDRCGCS


Key:
[1] = system: rat model of pulmonary arterial hypertension (PAH), monocrotaline (MCT) induced; assay: monocrotaline rat model of pulmonary arterial hypertension; format: in vivo, Sprague Dawley rats
Experimental: The effects of an ActRIIA-mFc fusion protein (ActRIIA-mFc homodimer as described in Example 1), an ALK4-Fc-ActRIIB-Fc heterodimer (as described in Examples 12 and 13), and sildenafil (a phosphodiesterase-5 inhibitor approved for the treatment of PAH) were examined in a rat model of pulmonary arterial hypertension (PAH). In this model, Sprague Dawley rats received a […] injection of monocrotaline (MCT) to induce PAH 24 hours prior to start of therapy.
Rats were separated into different treatment groups (10 mice per group): 1) treatment with MCT (60 mg/kg administered i.p. as a single dose at day 1 of study) and Tris buffered saline (i.p. as 1 ml/kg, every three days) (vehicle treatment group), 2) treatment with an ActRIIA-mFc polypeptide (10 mg/kg administered i.p. every three days) and MCT (60 mg/kg administered i.p. as a single dose at day 1 of study), 3) treatment with an ALK4-Fc:ActRIIB-Fc heterodimer (10 mg/kg administered i.p. every three days) and MCT (60 mg/kg administered i.p. as a single dose at day 1 of study), 4) treatment with sildenafil (30 mg/kg administered orally twice daily) and MCT (60 mg/kg administered i.p. as a single dose at day 1 of study), and 5) control rats (Tris buffered saline administered i.p. as 1 ml/kg, every three days). Rats were treated for 28 days. Body weights were recorded prior to first dose on Day 1 and then weekly throughout the study.
On day 28, rats were anesthetized by an intraperitoneal injection of ketamine/xylazine (80/10 mg/kg). An incision was made in the neck, and a jugular vein was isolated and ligated anteriorly. A fluid-filled pressure catheter was introduced into the right jugular vein to measure pulmonary artery pressure (PAP). Another incision was made in the inguinal region, and femoral artery was isolated and ligated anteriorly. A Millar pressure catheter was introduced into a femoral artery to measure systolic arterial pressure, diastolic pressure, and heart rate. Mean arterial pressure and right PAP were monitored using the Notocord HEM (Croissy sur Seine, Frnace) v3.5 data capture system for approximately 5-10 minutes until stable measurements were obtained. During the measurements, rats were maintained at approximately 37° C. on a heating pad and body temperature was monitored throughout the procedure with a rectal temperature probe. At the conclusion of the procedure, rats were euthanized, and the hearts and lungs were removed. The entire heart was weighed. Next, the atria were removed and the left ventricle with septum (LV+S) was separated from the right ventricle (RV). The ventricles were weighed separately. Hypertrophy was assessed, in part, by calculating RV/LV+S. The lungs were also weighed.
Similar trends were observed on vessel muscularity based on histopathologic scoring. After staining tissue samples to detect αSMA/elastin, 100 pulmonary arterioles, between 10 μm and 50 μm in size, per animal were categorized as non-muscularized, partially muscularized, or completely muscularized. Pulmonary arterioles from vehicle treated rats were determined to be 62.3% completely muscularized, 36.4% partially muscularized, and 1.4% non-muscularized. […] Histopathological scoring of smooth muscle hypertrophy of pulmonary arterioles were also recorded as follows: 0 (normal), 1 (minimal), 2 (mild), 3 (moderate), or 4 (marked).

activin A (ActA) = molecular target: T1, activin A (ActA); details: reproduced from WO2006/012627; cited from earlier work
GDF11 = molecular target: T2, GDF11; details: reproduced from WO2006/012627; cited from earlier work
GDF8 = molecular target: T3, GDF8; assay: Biacore assay, receptor captured with anti-hFc antibody; format: binding
Experimental: Binding of certain ActRIIB-Fc proteins and GDF traps to ligands was tested in a Biacore assay.
The ActRIIB-Fc variants or wild-type protein were captured onto the system using an anti-hFc antibody. Ligands were injected and flowed over the captured receptor proteins.

Row | Molecule | ActA binding relative to WT (activin A (ActA)) | GDF11 binding relative to WT (GDF11) | other results
1 | CCCc1nn(C)c2c(=O)[nH]c(-c3cc(S(=O)(=O)N4CCN(C)CC4)ccc3OCC)nc12 [sildenafil, reference compound] |  |  | smooth muscle hypertrophy of pulmonary arterioles, average histopathological score ([1]; 0 normal, 1 minimal, 2 mild, 3 moderate, 4 marked): 3 score; improvement in body weight ([1]; 28 days, compared to monocrotaline treated rats, proteins 10 mg/kg i.p. every three days, sildenafil 30 mg/kg orally twice daily): did not have any improvement
2 | D54A: soluble ActRIIB-Fc variant D54A (protein, left off: a dimerising Fc or GST) SGRGEAETRECIYYNANWELERTNQSGLERCEGEQAKRLHCYASWANSSGTIELVKKGCWLDDFNCYDRQECVATEENPQVYFCCCEGNFCNERFTHLPEA | − (~1/2 WT binding) |  | 
3 | R40A: soluble ActRIIB-Fc variant R40A (protein, left off: a dimerising Fc or GST) SGRGEAETRECIYYNANWELEATNQSGLERCEGEQDKRLHCYASWANSSGTIELVKKGCWLDDFNCYDRQECVATEENPQVYFCCCEGNFCNERFTHLPEA | − (~1/2 WT binding) | − (~1/2 WT binding) | 
4 | K74A: soluble ActRIIB-Fc variant K74A (WO2006/012627 table) (protein, left off: a dimerising Fc or GST) SGRGEAETRECIYYNANWELERTNQSGLERCEGEQDKRLHCYASWANSSGTIELVAKGCWLDDFNCYDRQECVATEENPQVYFCCCEGNFCNERFTHLPEA | +++++ (~40× increased binding) | +++++ (~40× increased binding) | 
5 | L79A: soluble ActRIIB-Fc variant L79A (protein, left off: a dimerising Fc or GST) SGRGEAETRECIYYNANWELERTNQSGLERCEGEQDKRLHCYASWANSSGTIELVKKGCWADDFNCYDRQECVATEENPQVYFCCCEGNFCNERFTHLPEA | + (WT) |  | 
6 | K74I: soluble ActRIIB-Fc variant K74I (protein, left off: a dimerising Fc or GST) SGRGEAETRECIYYNANWELERTNQSGLERCEGEQDKRLHCYASWANSSGTIELVIKGCWLDDFNCYDRQECVATEENPQVYFCCCEGNFCNERFTHLPEA |  | −− (<1/5 WT binding) | 
7 | WT (64R): soluble ActRIIB-Fc, wild type with arginine at position 64 (WO2006/012627) (protein, left off: a dimerising Fc or GST) SGRGEAETRECIYYNANWELERTNQSGLERCEGEQDKRLHCYASWRNSSGTIELVKKGCWLDDFNCYDRQECVATEENPQVYFCCCEGNFCNERFTHLPEA |  | (+++) (~5× increased binding) | 
8 | K55A: soluble ActRIIB-Fc variant K55A (protein, left off: a dimerising Fc or GST) SGRGEAETRECIYYNANWELERTNQSGLERCEGEQDARLHCYASWANSSGTIELVKKGCWLDDFNCYDRQECVATEENPQVYFCCCEGNFCNERFTHLPEA | ++ (<2× increased binding) |  | 
9 | K74Y: soluble ActRIIB-Fc variant K74Y (protein, left off: a dimerising Fc or GST) SGRGEAETRECIYYNANWELERTNQSGLERCEGEQDKRLHCYASWANSSGTIELVYKGCWLDDFNCYDRQECVATEENPQVYFCCCEGNFCNERFTHLPEA |  | −− (<1/5 WT binding) | 
10 | K74F: soluble ActRIIB-Fc variant K74F (protein, left off: a dimerising Fc or GST) SGRGEAETRECIYYNANWELERTNQSGLERCEGEQDKRLHCYASWANSSGTIELVFKGCWLDDFNCYDRQECVATEENPQVYFCCCEGNFCNERFTHLPEA |  | −− (<1/5 WT binding) | 
11 | D80I: soluble ActRIIB-Fc variant D80I (protein, left off: a dimerising Fc or GST) SGRGEAETRECIYYNANWELERTNQSGLERCEGEQDKRLHCYASWANSSGTIELVKKGCWLIDFNCYDRQECVATEENPQVYFCCCEGNFCNERFTHLPEA |  | −− (<1/5 WT binding) | 
12 | F82A: soluble ActRIIB-Fc variant F82A (protein, left off: a dimerising Fc or GST) SGRGEAETRECIYYNANWELERTNQSGLERCEGEQDKRLHCYASWANSSGTIELVKKGCWLDDANCYDRQECVATEENPQVYFCCCEGNFCNERFTHLPEA | ++ (<2× increased binding) | − (~1/2 WT binding) | 
13 | WT (64A): soluble ActRIIB-Fc, wild type with alanine at position 64 (WO2006/012627) (protein, left off: a dimerising Fc or GST) SGRGEAETRECIYYNANWELERTNQSGLERCEGEQDKRLHCYASWANSSGTIELVKKGCWLDDFNCYDRQECVATEENPQVYFCCCEGNFCNERFTHLPEA | (+) (WT) | (+) (WT) | 
14 | +15tail: soluble ActRIIB-Fc variant labelled +15tail (WO2006/012627) (protein, left off: a dimerising Fc or GST) SGRGEAETRECIYYNANWELERTNQSGLERCEGEQDKRLHCYASWANSSGTIELVKKGCWLDDFNCYDRQECVATEENPQVYFCCCEGNFCNERFTHLPEAGGPEVTYEPPPTAPT | (+++) (~5× increased binding) | (++++) (~10× increased binding) | Kd (GDF11): 19 nM
15 | ActRIIB(K74A 20-134)-hFc: ActRIIB(20-134)-hFc variant with K74A mutation (protein) GRGEAETRECIYYNANWELERTNQSGLERCEGEQDKRLHCYASWRNSSGTIELVAKGCWLDDFNCYDRQECVATEENPQVYFCCCEGNFCNERFTHLPEAGGPEVTYEPPPTAPTGGGTHTCPPCPAPELLGGPSVFLFPPKPKDTLMISRTPEVTCVVVDVSHEDPEVKFNWYVDGVEVHNAKTKPREEQYNSTYRVVSVLTVLHQDWLNGKEYKCKVSNKALPVPIEKTISKAKGQPREPQVYTLPPSREEMTKNQVSLTCLVKGFYPSDIAVEWESNGQPENNYKTTPPVLDSDGSFFLYSKLTVDKSRWQQGNVFSCSVMHEALHNHYTQKSLSLSPGK |  |  | Koff, GDF8 (GDF8): 2.03e-05 s⁻¹

Reference: patent US10973880B2, “Compositions and methods for treating pulmonary hypertension” (Acceleron Pharma Inc., priority 2016, dated 2021)
